Measured values taken from the DeepSol protein solubility set.

Assay: soluble on expression in E. coli; label from the status in PepcDB or PDB records

| Sequence | soluble on expression in E. coli |
| --- | --- |
| MAVREYQKKRRRERIFRAAMELFRNRGFQETTATEIAKAAHVSRGTFFNYYPYKEAVLLDYGSQLLAGLREEVRRLLAQGREPVEVLRHLFRVLAEGTAREKDLLLPMFYELLNPDPVRARAAFEALPLGDLIAEILKPLREQGVLRQDFSLERMGRTLADLYFLSALRWAAYTPGRDLAEELEKNLRLLLEGMLVREAPAPGGL | not soluble |
| VTDTDLITAGESTDGKPSDAAATDPPDLNADEPAGSLATMVLPELRALANRAGVKGTSGMRKNELIAAIEEIRRQANGAPAVDRSAQEHDKGDRPPSSEAPATQGEQTPTEQIDSQSQQVRPERRSATREAGPSGSGERAGTAADDTDNRQGGQQDAKTEERGTDAGGDQGGDQQASGGQQARGDEDGEARQGRRGRRFRDRRRRGERSGDGAEAELREDDVVQPVAGILDVLDNYAFVRTSGYLPGPHDVYVSMNMVRKNGMRRGDAVTGAVRVPKEGEQPNQRQKFNPLVRLDSINGGSVEDAKKRPEFGKLTPLYPNQRLRLETSTERLTTRVIDLIMPIGKGQRALIVSPPKAGKTTILQDIANAITRNNPECHLMVVLVDERPEEVTDMQRSVKGEVIASTFDRPPSDHTSVAELAIERAKRLVEQGKDVVVLLDSITRLGRAYNNASPASGRILSGGVDSTALYPPKRFLGAARNIEEGGSLTIIATAMVETGSTGDTVIFEEFKGTGNAELKLDRKIAERRVFPAVDVNPSGTRKDELLLSPDEFAIVHKLRRVLSGLDSHQAIDLLMSQLRKTKNNYEFLVQVSKTTPGSMDSD | not soluble |
| SAQEEGGSLPEVRARVRAAHGIPDLAQKLHFYDRWAPDYDQDVATLLYRAPRLAVDCLTQALPGPPHSALILDVACGTGLVAAELRAPGFLQLHGVDGSPGMLEQARAPGLYQRLSLCTLGQEPLPSPEGTFDAVLIVGALSDGQVPCNAIPELHVTKPGGLVCLTTRTNWSNLQYKEALEATLDRLEQAGMWEGLVAWPVDRLWTAGSWLPPSWWWYPASLPRMASSPALSTCTESGRRPRLRK | soluble |
| VDLGGVRRRISLMARQHGPTAQRHVASPMTVDIARLGRRPGAMFELHDTVHSPARIGLELIAIDQGALLDLDLRVESVSEGVLVTGTVAAPTVGECARCLSPVRGRVQVALTELFAYPDSATDETTEEDEVGRVVDETIDLEQPIIDAVGLELPFSPVCRPDCPGLCPQCGVPLASEPGHRHEQIDPRWAKLVEMLGPESDTLRGER | not soluble |
| MQSSLSFSCGVKSTMAKSPVEVNLIPIEATPETFAEYGQVIEASRDGAGYGPNDAQLDLSKGIPRLYILRLKETPLGFFKITHHAKVTQCLGSIGGDIWYMGVAKPSLIEDDDDGRRVDTVKAKSGHLYIPPEVEEIRVFRFSGPKFVKLHRGTWHAGPLFSGSSIMDFYNLELSNTNVVDHTSHDFTKNNGVSFRFDT | not soluble |
| MDCWISTDYQSRTGNMAYPCTNRKTADSYYLNRSYQLDRIAVLLFLRQGTNAAMAGYWSSKILATSESNIYMNIILNMGEYSKSQ | not soluble |
| YNSLSFLMRHDMIAGFHWFGPWGRDTFISMPGVLLVSGRYNEARRVLEHYAERIQDGMIPNTQDVEALRFSADTSLWFIYAVQKYLEYAGDDDFARQMLVPIKSIITAYIKGNSMFHLDDDLVTLTGSPLTWMDAMVSGKPVTPRIGKPIEINALWYNALSFYSRTAHDITGEDTEMFSKLARRIKQKFRAKFIKGDAVLDVSDPDDMKFRPNFLIPYFLPYPLLNDRKFVDLAWEKLVTPYGLRTLSPDDPDYVPTYSGPQPERDMAYHNGTVWPWLAGIFITAAVKTGYDKHALLEKFAPLFSMSRIPEIFDGSGTGIPKGCIMQAWSHGEIARAYFEDLRGGRS | not soluble |
| MSLKAIQFDLSIPKYALSKAMGKMNSSLYVESPFSCLQLRDVEKPALPNDHWVEIKVKYGGICGSDLNLIFLNDSPATSPFVSFPFTLGHEMVGTISKARKSVTNLQVGQRVVIDPLLSCEVRGITPVCSECANGNYNLCHHMNDGDIAPGLLTGTCKDTGGSWGRYLVAHQSQVISLPSSVDDDNGVLVEPFACALHAVLQNRPKPSDTVFVIGSGVIGICVIAAIRALEIPCKIVTLAKHPFQAELAKQFGADEIVFLSRKRDYVTAVAESFNANVLHPVFGEPIVHGGADIVYECVGNRKSLHDSLRFARKGGKVVLIGLASFIDNLDMTMIWLNELEVKGSFTYGMEDWQGGKKRTLQIAVDLIADGKVDLSPLITHRFPLEAYREALATAANKKKGQTMKVVFEEGHHHHHH | not soluble |
| MSTKADNRHLYLKVIERIKEDIKNGIYTEKEKLPSEFELSKKLGVSRATLREALRILEEEHVIIRRHGVGTFVHSKPLFLSGIEQLNSVTKMIEQANMTPGTIFLSSQVLMPSEDDTKRFHLAEGQELFYLERVRTADGQPIVYCIDKIPMNILPNSFSHQQESMFDLLEKNSGSVISYAVTDIEPIGYHDTISPVLECDPETALLLLKQTHYDQHDKPVLYSLNYFRADKFRFHVLRKRF | not soluble |
| MVQLFSAFDRETIERNLQEEKFDLVIVGGGITGAGIALDATSRGMSVALVEMGDFASGTSSRSTKLVHGGLRYLQQFEIKEVADLGKERAIVYENGPHVTTPEWMMLPFHKGGNMGKTTASFGIRLYDYLAGVKKNERRKILSAKETLAKNPFVKKDGLKGSGYYVEYRTDDARLTIEVMKKAVELGANAINYTKAEHFLYDDKKQVVGVTVTDRLTGKAYDIKGHRVINAAGPWVDKVRKLDYATNNKHLRLTKGIHLVIDKQKFPMEQAVYFDTPDGRMVFAIPRDKKVYVGTTDTVYDEAVINPKALESDHNYVIKAINYMFPDVHISEKDIESSWAGVRPLIYEEGKDPSEISRKDEVWFSESGLITMAGGKLTGYRKMAEKLLDGVSKTLSKETGKKYKPVQTKHLPISGGDIGGSEQLEAFLSKKAKEGNNRFGWTLEEGREIAKRFGSNIDQLFTYAQEHKDQNETTLPNSLYAELRYSIQHEAVTTPIDFLLRRTGYLLFDMPYLLEWKDAVVDEMAKQFHWSDDVKQTYIEELNIQINDAREPADWHDRLEHHHHHH | soluble |
| MAHHHHHHMRAAPTRLAPSTVASLGRSHCGSQAYHLDAAGAAGWRRRRRLTGVSMTTTHTVAPAVSALPFSLSTARRTYYWPYPENLVPEGATTSPFQSSPVPSVRERIIREYALGPLFGSRTPCCVLGFAGTARDVAACKRDVRRWVARALGKSEADVELGALVQAKEMLLHRSGTDESPRLGDGPGSRPDAEQRRVTRYARLPVQARTLLEVYLPGEEHGEVDAAADADATILAHGYFLQEQLHRHMTTTASSGSDPTGRRDSEDCQPEEPARKMQSHCQGCSEPNDEADVKSSVAALHDVCGVIYCEVPVLDESDFAFDQLCGKEVDDETTERVTDRWTRRAMQQQPQL | soluble |
| MGSDKIHHHHHHMDNLPDKLQNIVEEVDHQIAPKLEEIEDQIVYNQAKVLKAFQDNNVAEADLNGATGYGDDDIGRDKLDKVYAQVFDTEDALVRPQFVSGTHTLFTALSGNLKYGDTLTYLTGMPYDTLQKVIGLTDDKRGTLAEKGVKFSYVPLSDENLIDYDVAEKILKRDQPKMVAIQRSRGYSTRKTFTVEQIKEMISFVKKVSPNSIIFIDNCYGEFAEKYEPTEYGADLMAGSLIKNAGGGLAKTGGYIVGKKDLVENAKLQLTAPGCTDEGATIGHLHDLYEGFFLAPNVTGMAEKGMIFAAALFEKMGLNVTPAWDEKRSDIIETIIFNDPEKMVKFVQEVQKNSPIDSFVTPEAVHMEGYEDKIIMAAGNFVSGSTIEFSADGPIRPPYAVYMQGGLTYAHDKVAIINSVRDTFFNKK | not soluble |
| GSHMASDLKNPYERIQAEAYDAMSGIQTEGTDDDGGGDNIGWINDGDWVKYERVHFERDASSIEVRVASDTPGGRIEIRTGSPTGTLLGDVQVPNTGGWQQWQTVTGNVQIQPGTYDVYLVFKGSPEYDLMNVNWFVFRANG | soluble |
| MKINYQELANNIKLWAKELGFQKVGICDVDLSQHEAALEQWLEAGYHGSMDWMARHGVMRARPDELHPGTIRVISARMDYLPPKAGFASNLKDPNQAYISRYALGRDYHKLIRNQLKKLGQKIEEEVEQLGYRPFVDSAPILERPLAEKAGLGWTGKHSLLLDKNAGSWFFLGELLVDIPLPVDTPVENQCGKCTACISSCPTNAILENGVIDARRCISYLTIENSGIIPEEFRSLMGNRIYGCDDCQLVCPWNREAEITQQADFHRRSSLGNSDLISLFSWDESTFLKNMEGSAIRRIGHIQWLRNLSIAMGNAPHSEAIISALQDRLGLDENLDIHIQWAIKQQSLVITSNRKEQRLIRIIEKGLPRDA | not soluble |
| MPVLHNRISNDELKAKMLAESEPRTTISFYKYFTIASPQQTRDALYQVFTALDVFGRVYLAHEGINAQISVPQSKLETFRQQLYTFDPALDGVRLNIALEDDGKSFWVLRMKVRDRIVADGIDDPTFDASNVGDYLKAADVNAMLDDPDAVFIDMRNHYEYEVGHFENALEIPADTFREQLPKAVEMLREHADKKIVMYCTGGIRCEKASAWMKHNGFNKVWHIEGGIIEYARRARAQGLPVRFIGKNFVFDERMGERISDEVIAHCHQCGASCDSHTNCKNDGCHLLFIQCPQCASKFNGCCSEQCCEELALPEEEQRRRRAGRENGNKIFNKSRGRLNSKLSIPDPAEAAALEHHHHHH | soluble |
| MAIQFIVSNKYTAEVSKQLNDSQNWVLDSGIYYEDHNNHIVSSPINSATKPQNTREEWLWIPPHCQVVVCSTSSLKSFLGCKASEDLDRVFGDHPLWLDQLRPLSNLLENSLIDLLSRAPFEQSSKRNIQSMERGNPVMNWNVMQVEEEDTRGEQRVAASSSLSSSFDWNTFLRDRCGLSEEDVAYCFRKLSRFGRVSLSRLNEDSLLRMGINDPTVIAKLLIGITEEFS | not soluble |
| MSQPPLLSGPGGRLLGAALLIGLLAGCGSVSTGNAGSGTVGTSTTSRADVMTFQPSSLPVSYVGETYNVQVGVTGGVGPYGYRLTAGTLPPGLKFAGGALSGTPTKAGSYSFAIQATDANLSTRVQEYTMNVDALPPLALKPTLPPGEIRGETRIPVTIQAPRAVRAARLSWDLGKDVQVTRVQPADAGSVVFWQQRGSVLTVDLGFRTVPRPDARIALITVKPAKAVTLKADALGYEARDGSGKMLVDKKRPGSEPVKPAEQPGDPKVDPKAADQKATDQKATDPKTVDPKTVTPADTVEGGPLPSPALPTPSLPPTLPPVTTPPANTPPVPTPTPPANQPAPAPAPQPAPAPQPTPPSGTGGALEHHHHHH | soluble |
| MKHLMKMWNPWWIERKVPASKKRISRPETLETILKLLDIREVICITGVRRCGKSTIMYQAIDHLIGKGVEPENILYFNLDEPFEDKSIGLLDRIFGEYIELHVPKGRKYIFLDEIQNVKDWEQWVKKFYDLHGEDIKFVLTGSNSSMLSDQLSILLTGRMITQHVFPLSFKEYLDFESFELKDPDIQRNEILHYFNKYLFKGGFPEVVLENDMDINHLRLTEYFNSILLRDIVVGRNIRESAKLIELANYSLSNVSTLLSYSKISNATGLSVNSLKEYLLFLEQAYLIYQLNFFSYSVKDSISIKMPKKVYCIDNGLRNSAAFTFSADEGRLAENLAFVELKRRKVEFFYWKEKREVDFVIKGIDGALTGINCTCTDHIRQGEINALLELKEQFGEKVSRLILLTKNLEKKENDISYIPLWKWVLGTRLSK | not soluble |
